Test results from article PMC5784979, “Direct comparison of the four aldehyde oxidase enzymes present in mouse gives insight into their substrate specificities” (PLoS ONE, 2018).

Columns and labels:
Assay in all cases: purified protein
Conditions in all cases: 100 μM DCPIP as electron acceptor, 50 mM Tris-HCl, 1 mM EDTA, pH 8.0, 37°C, corrected to 100% Mo saturation
purified protein [1] = substrate: O=Cc1ccccc1; assay type: biochemical, Mus musculus
purified protein [2] = substrate: c1ncc2[nH]cnc2n1; assay type: biochemical, Mus musculus
purified protein [3] = substrate: c1ccc2c(c1)cnc1ccccc12
purified protein [4] = substrate: c1ccc2cnncc2c1; assay type: biochemical, Mus musculus
purified protein [5] = substrate: O=Cc1ccccc1O; assay type: biochemical, Mus musculus
purified protein [6] = substrate: CCCCC=O; assay type: biochemical, Mus musculus
purified protein [7] = substrate: CC=O; assay type: biochemical, Mus musculus
purified protein [8] = substrate: COc1ccccc1C=O; assay type: biochemical, Mus musculus

Row | Protein | Km (purified protein [1]) [µM] | kcat (purified protein [1]) [s⁻¹] | Km (purified protein [2]) [µM] | kcat (purified protein [2]) [s⁻¹] | Km (purified protein [3]) [µM] | kcat (purified protein [3]) [s⁻¹] | kcat/Km (purified protein [1]) [M⁻¹ s⁻¹] | Km (purified protein [4]) [µM] | kcat (purified protein [4]) [s⁻¹] | kcat/Km (purified protein [4]) [M⁻¹ s⁻¹] | Km (purified protein [5]) [µM] | kcat (purified protein [5]) [s⁻¹] | kcat/Km (purified protein [5]) [M⁻¹ s⁻¹] | Km (purified protein [6]) [µM] | kcat (purified protein [6]) [s⁻¹] | kcat/Km (purified protein [6]) [M⁻¹ s⁻¹] | Km (purified protein [7]) [µM] | Km (purified protein [8]) [µM] | kcat (purified protein [8]) [s⁻¹]
1 | mAOX3 (Mus musculus) (protein, recombinant from E. coli TP1000 (plasmid pMMA1), Ni-NTA and Superdex 200 purified, chemically sulfurated, dimer (300 kDa)) MSPSKESDELIFFVNGKKVTERNADPEVNLLFYLRKVIRLTGTKYGCGGGDCGACTVMISRYDPISKRISHFSATACLVPICSLHGAAVTTVEGIGSTKTRIHPVQERIAKGHGTQCGFCTPGMVMSIYTLLRNHPEPSTEQIMETLGGNLCRCTGYRPIVESAKSFCPSSTCCQMNGEGKCCLDEEKNEPERKNSVCTKLYEKKEFQPLDPTQELIFPPELMRMAEESQNTVLTFRGERTTWIAPGTLNDLLELKMKHPSAPLVIGNTYLGLHMKFTDVSYPIIISPARILELFVVTNTKQGLTLGAGLSLTQVKNVLSDVVSRLPKEKTQIYCALLKQLKTLAGQQIRNVASLGGHIISRLPTSDLNPILGIGNCILNVASTEGIQQIPLNDHFLAGVPDAILKPEQVLISVFVPRSSKWEFVSAFRQAPRQQNAFATVNAGMKVVFKEDTNTITDLGILYGGIGATVISADKSCRQLIGRCWDEEMLDDAGKMICEEVSLLMAAPGGMEEYRKTLAISFLFMFYLDVLKQLKTRDPHKYPDISQKLLHILEDFPLTMPYGMQSFQDVDFQQPLQDPIGRPIMHQSGIKHATGEAVFCDDMSVLPGELFLAVVTSSKSHAKIISLDASEALASLGVVDVVTARDVPGDNGREEESLYAQDEVICVGQIVCAVAADSYAHAQQAAKKVKIVYQDIEPMIVTVQDALQYESFIGPERKLEQGNVEEAFQCADQILEGEVHLGGQEHFYMETQSVRVVPKGEDKEMDIYVSSQDAAFTQEMVARTLGIPKNRINCHVKRVGGAFGGKASKPGLLASVAAVAAQKTGRPIRFILERRDDMLITGGRHPLLGKYKIGFMNNGKIKAADIQLYINGGCTPDDSELVIEYALLKLENAYKIPNLRVRGRVCKTNLPSNTAFRGFGFPQGAFVTETCMSAVAAKCRLPPEKVRELNMYRTIDRTIHNQEFDPTNLLQCWEACVENSSYYNRKKAVDEFNQQRFWKKRGIAIIPMKFSVGFPKTFYYQAAALVQIYTDGSVLVAHGGVELGQGINTKMIQVASRELKIPMSYIHLDEMSTVTVPNTVTTGASTGADVNGRAVQNACQILMKRLEPIIKQNPSGTWEEWVKEAFVQSISLSATGYFRGYQADMDWEKGEGDIFPYFVFGAACSEVEIDCLTGAHKNIRTDIVMDGSFSINPAVDIGQIEGAFVQGLGLYTLEELKYSPEGVLYTRGPHQYKIASVTDIPEEFHVSLLTPTPNPKAIYSSKGLGEAGTFLGCSVFFAIAAAVAAAREERGLSPIWAINSPATAEVIRMACEDQFTNLVPQTDSKCCKPWSIPVA | 0.8 ± 0.1 | 2.512 ± 0.06 | 3181 ± 334 | 7.862 ± 0.298 | 10.8 ± 1.8 | 2.353 ± 0.0917 |  |  |  |  |  |  |  |  |  |  |  |  | 
2 | mAOX2 (Mus musculus) (protein, recombinant from E. coli TP1000 (codon-optimized plasmid pMAOX2co), Ni-NTA and Superdex 200 purified, chemically sulfurated, dimer (300 kDa)) MPCPAQISDDLEFFVNGRKVTEKNVDPEVTLLAFLRKNLCLTGTKDACGTGGCGACTVMVSQHDPVCKKTRHFSVMACLVPLCSLHGAAVTTVEGVGSIKTRLHPVQERIAKSHGTQCGFCTPGMVMSIYTLLRNHPQPSEEQLMEALGGNLCRCTGYRPILESGRTFCMEPDGCPQKGTGQCCLDQKESDSSGSKSDICTKLFVKDEFQPLDPTQELIFPPELLRMAENPEKQTLTFYGERITWIAPGTLQELLVLKAKYPEAPLISGNTALGPAMKSQGHFYPVLLSPARIPDLRMVTKTSGGLTIGACCSLAQVKDILAESISELPQEKTQTYRALLKHLRSLAGQQIRNMASLGGHVISRHCYSDLNPILSVGNTTLNLLSEEGPRQIPLSGHFLAGLASADLKPEEILGSVYIPHSQKREFVSAFRQAQCHQNALPDVNAGMRVLFREGTDVIEELSIAYGGVGPTTVSAQRSCQQLLGRRWNALMLDEACRLLLDEVSLPGSALGGKVEFRRTLIVSLFFKFYLEVLQELKADQKLPPESTDSQRYPEIADRFLSSLGDFQVTLPRGVQTYQRVDSHQPLQDPVGRPIMHLSGLKHATGEAVFCDDIPRVDKELFMALVTSTRAHARIISIDSSEVLDLPGVVDVITAEDIPGNNGEEDDKLLAVDKVLCVGQVICAVVAETDVQAKRATEKIKITYEDLKPVIFTIEDAIKHNSFLCPEKKLEQGNIEEAFENVDQVAEGTVHVGGQEHFYMETQRVLVIPKTEDKELDMYVSTQDPAHVQKTVSSTLNIPISRITCHVKRVGGGFGGKVGRPAVFGAIAAVGAVKTGHPIRLVLDREDDMLITGGRHPLFAKYKVGFMNSGRIKALDIECYINGGCTLDDSELVTEFLVLKLENAYKIRNLRLRGRACMTNLPSNTAFRGFGFPQGALVTESCITAVAAKCGLPPEKIREKNMYKTVDKTIYKQAFNPDPLIRCWNECLDKSSFHIRRTRVDEFNKKSYWKKRGIAIVPMKFSVGFAATSYHQAAALVHIYTDGSVLVAHGGNELGQGIHTKMLQVASRELKIPLSYLHICETSTTTVPNTIATAASVGADVNGRAVQNACQILLKRLEPVIKKNPEGTWRDWIEAAFEKRISLSATGYFRGYKAFMDWEKGEGDPFPYYVYGAACSEVEIDCLTGAHKKIRTDIVMDACCSLNPAIDIGQIEGAFIQGMGLYTTEELLYSPEGVLYSRSPDKYKIPTVTDVPEQFNVSLLPSSQTPLTLYSSKGLGESGMFLGSSVFFAIVDAVAAARRQRDIAEDFTVKSPATPEWVRMACADRFTDMIPRDDPKTFKPWSIPIA |  |  | 298.4 |  | 1.9 ± 0.3 | 1.962 ± 0.0817 |  |  |  |  |  |  |  |  |  |  |  |  | 
3 | mAOX4 (Mus musculus) (protein, recombinant from E. coli TP1000 (plasmid pMAOX4), Ni-NTA and Superdex 200 purified, chemically sulfurated, dimer (300 kDa)) MPSVSESDELIFFVNGKKVIEKNPDPEKNLLFYTRKVLNLTGTKYSCGTGGCGACTVMVSRYNPKTRKIHHYPATACLVPICWLHGAAITTVEGVGSIKKRVHPVQERLAKCHGTQCGFCSPGMVMSIYTLLRNHPEPTPDQITEALGGNLCRCTGYRPIVESGKTFSQKSTVCQMKGSGKCCMDPDEKCLESREKKMCTKLYNEDEFQPFDPSQEPIFPPELIRMAEDPNKRRLTFQGKRTTWIIPVTLNDLLELKASYPEAPLVMGNTTVGPGIKFNDEFYPVFISPLGVPELNLMDTTNNGVTIGAGYSLAQLKDTLDFLVSEQPKEKTKTFHALQKHLRTLAGPQIRNMATLGGHTASRPNFSDLNPILAAGNATINVVSREGKDRQLPLNGPFLEKLPEADLKPEEVILSIFIPYTAQWQFVSGLRLAQRQENAFAIVNAGMSVEFEEGTNTIKDLKMFFGSVAPTVVSASQTCKQLIGRQWDDQMLSDACQLVLQEIRIPPDAEGGMVEYRRTLIISLLFKFYLKVQRWLNEMDPQKFPDIPGKFVSALDDFPIETPQGIQMFQCVDPKQPQKDPVGHPIMHQSGIKHATGEAIFIDDMPPIDQELCLAVVTSTRAHAKITSLDVSEALACPGVVDVITAEDVPGENDHNGEILYAQSEVICVGQIICTVAADTYIHAKEAAKRVKIAYDDIEPTIITIEEALEHNSFLSPEKKIEQGNVDYAFKHVDQIVEGEIHVEGQEHFYMETQTILAIPQTEDKEMVLHLGTQFPTHVQEFVSAALNVPRSRIACHMKRAGGAFGGKVTKPALLGAVCAVAANKTGRPIRFILERSDDMLITAGRHPLLGKYKIGFMNNGEIRAADVEYYTNGGCTPDESELVIEFVVLKSENTYHIPNFRCRGRACKTNLPSNTAFRGFGFPQATVVVEAYIAAVASKCNLLPEEVREINMYKKTSKTAYKQTFNPEPLRRCWKECLEKSSFFARKKAAEEFNGNNYWKKRGLAVVPMKFSVAVPIAFYNQAAALVHIFLDGSVLLTHGGCELGQGLHTKMIQVASRELNVPKSYVHFSETSTTTVPNSAFTAGSMGADINGKAVQNACQILMDRLRPIIRKNPKGKWEEWIKMAFEESISLSATGYFKGYQTNMDWKKEEGDPYPYYVYGAACSEVEVDCLTGAHKLLRTDIFVDAAFSINPALDIGQVEGAFIQGMGFYTTEELKYSPKGVLYSRGPEDYKIPTITEIPEEFYVTLVHSRNPIAIYSSKGLGEAGMFLGSSVLFAIYDAVTTARKERGLSDIFPLNSPATPEVIRMACTDQFTEMIPRDDPSTFTPWSIHVS | 2.2 ± 0.2 | 1.52 ± 0.0383 | 12344 |  |  |  | 693000 | 8.3 ± 0.9 | 5.51 ± 0.142 | 665000 | 13.2 ± 2.4 | 3.42 ± 0.112 | 260000 | 48.3 ± 8.7 | 2.8 ± 0.22 | 58300 |  |  | 
4 | mAOX1 (Mus musculus) (protein, recombinant from E. coli TP1000 (codon-optimized plasmid pMAOX1co), Ni-NTA and Superdex 200 purified, chemically sulfurated, dimer (300 kDa)) MDPIQLLFYVNGQKVVEKNVDPEMMLLPYLRKNLRLTGTKYGCGGGGCGACTVMISRYNPSTKAIRHHPVNACLTPICSLHGTAVTTVEGLGNTRTRLHPIQERIAKCHGTQCGFCTPGMVMSMYALLRNHPEPTLDQLTDALGGNLCRCTGYRPIIDACKTFCKASACCQSKENGVCCLDQEINGLAESQEEDKTSPELFSEEEFLPLDPTQELIFPPELMRIAEKQPPKTRVFYGERVTWISPVTLKELVEAKFKYPQAPIVMGYTSVGPEVKFKGVFHPIIISPDRIEELGVISQARDGLTLGAGLSLDQVKDILADIVQKLPEEKTQTYRALLKHLRTLAGSQIRNMASLGGHIVSRHLDSDLNPLLAVGNCTLNLLSKDGERRIPLSEEFLRKCPEADLKPQEVLVSVNIPWSRKWEFVSAFRQAQRQQNALAIVNSGMRVLFREGGGVIEELSILYGGVGSTIISAKNSCQRLIGRPWNEGMLDTRCRLVLDEVTLAASAPGGKVEFKRTLIISFLFKFYLEVSQGLKREDPGHSPSLAGNHESALDDLHSKHPWRTLTHQNVDPAQLPQDPIGRPIMHLSGIKHATGEAIYCDDMPAVDRELFLTFVTSSRAHAKIVSIDLSEALSLPGVVDIITADHLQEANTFGTETFLATDEVHCVGHLVCAVIADSETRAKQAAKQVKVVYQDLAPLILTIEEAIQHKSFFKSERKLECGNVDEAFKIVDQILEGEIHIGGQEHFYMETQSMLVVPKGEDGEIDIYVSTQFPKYIQDIVAATLKLSANKVMCHVRRVGGAFGGKVGKTSILAAITAFAASKHGRAVRCILERGEDMLITGGRHPYLGKYKAGFMNEGRILALDVEHYCNGGCSLDESLWVIEMGLLKLDNAYKFPNLRCRGWACRTNLPSNTALRGFGFPQAGLVTEACITEVAIKCGLSPEQVRTINMYKHVDTTHYKQEFSAKALSECWRECMAKCSYFERKAAIGKFNAENSWKKRGMAVIPLKFPVGIGSVAMGQAAALVHIYLDGSALVSHGGIEMGQGVHTKMIQVVSRELRMPMSSVHLRGTSTETVPNTNASGGSVVADLNGLAVKDACQTLLKRLEPIISKNPQGTWKDWAQTAFDQSISLSAVGYFRGYESNIDWEKGEGHPFEYFVFGAACSEVEINCLTGDHKNIRTNIVMDVGHSINPALDIGQVEGAFIQGMGLYTIEELSYSPQGTLYSRGPNQYKIPAICDIPTEMHISFLPPSEHSNTLYSSKGLGESGVFLGCSVFFAIHDAVKAARQERGISGPWKLNSPLTPEKIRMACEDKFTKMIPRDEPGSYVPCNIPV |  |  | 9028 ± 971 | 7.147 ± 0.29 | 2.5 ± 1.1 | 2.013 ± 0.277 |  |  |  |  |  |  |  |  |  |  | 18000 | 6.6 ± 1.5 | 6.885 ± 0.362
